For 1 molecule, percent decrease of MDMX bound to p53 in cells treated with RITA results are on record in doi:10.1101/384248.

For this test, the target named is p53 (human (endogenous in HCT 116, MCF7, U2OS)), P04637. The test is described as follows: co-IP. The conditions noted are these: remark: other sources report otherwise.
Sequence of p53 (human (endogenous in HCT 116, MCF7, U2OS)), P04637 (P04637 whole entry): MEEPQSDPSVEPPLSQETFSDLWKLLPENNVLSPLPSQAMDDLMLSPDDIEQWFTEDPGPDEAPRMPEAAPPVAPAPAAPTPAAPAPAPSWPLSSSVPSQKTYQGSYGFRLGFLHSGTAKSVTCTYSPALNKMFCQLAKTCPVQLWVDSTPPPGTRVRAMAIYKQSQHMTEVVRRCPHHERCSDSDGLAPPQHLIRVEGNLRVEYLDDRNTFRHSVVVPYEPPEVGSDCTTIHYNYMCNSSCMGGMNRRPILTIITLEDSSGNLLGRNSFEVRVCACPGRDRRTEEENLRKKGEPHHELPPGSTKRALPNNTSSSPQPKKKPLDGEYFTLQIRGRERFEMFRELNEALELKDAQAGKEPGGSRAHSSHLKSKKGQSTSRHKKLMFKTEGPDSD

B1: MDMX, O15151 1-490 (natural protein)
chain: MTSFSTSAQCSTSDSACRISPGQINQVRPKLPLLKILHAAGAQGEMFTVKEVMHYLGQYIMVKQLYDQQEQHMVYCGGDLLGELLGRQSFSVKDPSPLYDMLRKNLVTLATATTDAAQTLALAQDHSMDIPSQDQLKQSAEESSTSRKRTTEDDIPTLPTSEHKCIHSREDEDLIENLAQDETSRLDLGFEEWDVAGLPWWFLGNLRSNYTPRSNGSTDLQTNQDVGTAIVSDTTDDLWFLNESVSEQLGVGIKVEAADTEQTSEEVGKVSDKKVIEVGKNDDLEDSKSLSDDTDVEVTSEDEWQCTECKKFNSPSKRYCFRCWALRKDWYSDCSKLTHSLSTSDITAIPEKENEGNDVPDCRRTISAPVVRPKDAYIKKENSKLFDPCNSVEFLDLAHSSESQETISSMGEQLDNLSEQRTDTENMEDCQNLLKPCSLCEKRPRDGNIIHGRTGHLVTCFHCARRLKKAGASCPICKKEIQLVIKVFIA
Molecule B1 returned a percent decrease of MDMX bound to p53 in cells treated with RITA of 43%.
